Results from patent publication US20030157554A1 (published 2003).
Where two headings read alike, the source gives them in different places.

B1: ATPase (ATP6N1) (Genbank ID: u73006) (other, human, UniProt Q93050 1-300, looked up)
chain: MGELFRSEEMTLAQLFLQSEAAYCCVSELGELGKVQFRDLNPDVNVFQRKFVNEVRRCEEMDRKLRFVEKEIRKANIPIMDTGENPEVPFPRDMIDLEANFEKIENELKEINTNQEALKRNFLELTELKFILRKTQQFFDEMADPDLLEESSSLLEPSEMGRGTPLRLGFVAGVINRERIPTFERMLWRVCRGNVFLRQAEIENPLEDPVTGDYVHKSVFIIFFQGDQLKNRVKKICEGFRASLYPCPETPQERKEMASGVNTRIDDLQMVLNQTEDHRQRVLQAAAKNIRVWFIKVRKM
notes: range 1-~300; Prey from liver library; end of the fragment approximate; also called Vacuolar-type H(+) ATPase; ATP6N17
B2: NAPA1 (Genbank ID: U39412) (other, human, UniProt P54920 1-295, looked up)
chain: MDNSGKEAEAMALLAEAERKVKNSQSFFSGLFGGSSKIEEACEIYARAANMFKMAKNWSAAGNAFCQAAQLHLQLQSKHDAATCFVDAGNAFKKADPQEAINCLMRAIEIYTDMGRFTIAAKHHISIAEIYETELVDIEKAIAHYEQSADYYKGEESNSSANKCLLKVAGYAALLEQYQKAIDIYEQVGTNAMDSPLLKYSAKDYFFKAALCHFCIDMLNAKLAVQKYEELFPAFSDSRECKLMKKLLEAHEEQNVDSYTESVKEYDSISRLDQWLTTMLLRIKKTIQGDEEDLR
notes: Full-length bait; Gal4-BD fusion
B3: LZIP (Genbank ID: AF029674) (other, human, UniProt O43889 1-371, looked up)
chain: MELELDAGDQDLLAFLLEESGDLGTAPDEAVRAPLDWALPLSEVPSDWEVDDLLCSLLSPPASLNILSSSNPCLVHHDHTYSLPRETVSMDLESESCRKEGTQMTPQHMEELAEQEIARLVLTDEEKSLLEKEGLILPETLPLTKTEEQILKRVRRKIRNKRSAQESRRKKKVYVGGLESRVLKYTAQNMELQNKVQLLEEQNLSLLDQLRKLQAMVIEISNKTSSSSTCILVLLVSFCLLLVPAMYSSDTRGSLPAEHGVLSRQLRALPSEDPYQLELPALQSEVPKDSTHQWLDGSDCVLQAPGNTSCLLHYMPQAPSAEPPLEWPFPDLFSEPLCRGPILPLQANLTRKGGWLPTGSPSVILQDRYSG
notes: range 1-372; Prey from liver and muscle libraries; also called LIZP
B8: S100A9 (Genbank ID: M26311) (other, human, UniProt P06702 1-114, looked up)
chain: MTCKMSQLERNIETIINTFHQYSVKLGHPDTLNQGEFKELVRKDLQNFLKKENKNEKVIEHIMEDLDTNADKQLSFEEFIMLMARLTWASHEKMHEGDEGPGHHHKPGLGEGTP
notes: range 1-114; Prey from liver and muscle libraries
B9: Synphilin (Genbank ID: AF076929) (other, human, UniProt Q9Y6H5 335-660, looked up)
chain: PHLAADNLDKIHDENGNNLLHIAASQGHAECLQHLTSLMGEDCLNERNTEKLTPAGLAIKNGQLECVRWMVSETEAIAELSCSKDFPSLIHYAGCYGQEKILLWLLQFMQEQGISLDEVDQDGNSAVHVASQHGYLGCIQTLVEYGANVTMQNHAGEKPSQSAERQGHTLCSRYLVVVETCMSLASQVVKLTKQLKEQTVERVTLQNQLQQFLEAQKSEGKSLPSSPSSPSSPASRKSQWKSPDADDDSVAKSKPGVQEGIQVLGSLSASSRARPKAKDEDSDKILRQLLGKEISENVCTQEKLSLEFQDAQASSRNSKKIPLEKR
notes: range 335-~660; Prey from kidney library; end of the fragment approximate; also called Synphilin I; Synphilin 1
B10: FHOS (Genbank ID: AF113615) (other, human, UniProt Q9Y613 964-1164, looked up)
chain: TPQAAREVRIMQFCHTLREFALEYRTCRERVLQQQQKQATYRERNKTRGRMITETEKFSGVAGEAPSNPSVPVAVSSGPGRGDADSHASMKSLLTSRPEDTTHNRRSRGMVQSSSPIMPTVGPSTASPEEPPGSSLPSDTSDEIMDLLVQSVTKSSPRALAARERKRSRGNRKSLRRTLKSGLGDDLVQALGLSKGPGLEV
notes: range 964-1164; Prey from muscle library

Assays:
[1] = target: the molecule itself; assay: Y2H 1x1 mating, binder AD fusion, target BD fusion
[2] = target: B9; assay: Y2H 1x1 mating, binder AD fusion, target BD fusion
[3] = target: T1, S100A6 (Genbank ID: M14300) (human, UniProt P06703 1-90); assay: Y2H 1x1 mating, binder AD fusion, target BD fusion
[4] = target: B3; assay: Y2H library screen, binder bait, target prey
[5] = target: the molecule itself; assay: Y2H 1x1 mating, binder AD fusion, target BD fusion; remark: listed apart in the source
[6] = target: B2; assay: Y2H library screen, binder bait, target prey
[7] = target: B3; assay: Y2H 1x1 mating, binder AD fusion, target BD fusion
[8] = target: the molecule itself; assay: Y2H 1x1 mating, binder AD fusion, target BD fusion; remark: listed apart in the source
[9] = target: B9; assay: Y2H 1x1 mating, binder AD fusion, target BD fusion; remark: listed apart in the source
[10] = target: T1, S100A6 (Genbank ID: M14300); assay: Y2H 1x1 mating, binder AD fusion, target BD fusion; remark: listed apart in the source
[11] = target: B8; assay: Y2H 1x1 mating, binder AD fusion, target BD fusion
[12] = target: T2, Fibrinogen (Genbank ID: M58569), S100A1 interactor (human, UniProt P02671 345-545, limits assumed); assay: Y2H 1x1 mating, binder AD fusion, target BD fusion
T2 construct: range 345-~545; Prey from liver library found with S100A1; also called fibrinogen alpha subunit
T2 sequence (looked up): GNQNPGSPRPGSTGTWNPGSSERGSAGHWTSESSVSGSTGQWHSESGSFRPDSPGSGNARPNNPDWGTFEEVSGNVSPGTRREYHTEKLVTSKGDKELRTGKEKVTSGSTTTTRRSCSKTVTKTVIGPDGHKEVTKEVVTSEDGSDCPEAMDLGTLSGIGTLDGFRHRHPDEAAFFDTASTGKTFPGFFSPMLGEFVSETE

[13] = target: the molecule itself; assay: Y2H, baits tested against each other
[14] = target: B10; assay: Y2H 1x1 mating, binder AD fusion, target BD fusion
[15] = target: B1; assay: Y2H 1x1 mating, binder AD fusion, target BD fusion

B1
binding result [1]: no binding | binding result [2]: no binding | binding result [3]: no binding

B2
binding result [4]: binds

B3
binding result [5]: no binding

B4: SYN4 (Genbank ID: u07158) (other, human, UniProt Q12846 158-297, looked up)
chain: RQLKITNAGMVSDEELEQMLDSGQSEVFVSNILKDTQVTRQALNEISARHSEIQQLERSIRELHDIFTFLATEVEMQGEMINRIEKNILSSADYVERGQEHVKTALENQKKARKKKVLIAICVSITVVLLAVIIGVTVVG
notes: Prey from brain and muscle libraries; also called Syntaxin 4
binding result [6]: binds | binding result [5]: no binding | binding result [7]: no binding

B5: STAU (Genbank ID: AF061939) (other, human, UniProt O95793 6-577, looked up)
chain: VQVQNPSAALSGSQILNKNQSLLSQPLMSIPSTTSSLPSENAGRPIQNSALPSASITSTSAAAESITPTVELNALCMKLGKKPMYKPVDPYSRMQSTYNYNMRGGAYPPRYFYPFPVPPLLYQVELSVGGQQFNGKGKTRQAAKHDAAAKALRILQNEPLPERLEVNGRESEEENLNKSEISQVFEIALKRNLPVNFEVARESGPPHMKNFVTKVSVGEFVGEGEGKSKKISKKNAAIAVLEELKKLPPLPAVERVKPRIKKKTKPIVKPQTSPEYGQGINPISRLAQIQQAKKEKEPEYTLLTERGLPRRREFVMQVKVGNHTAEGTGTNKKVAKRNAAENMLEILGFKVPQAQPTKPALKSEEKTPIKKPGDGRKVTFFEPGSGDENGTSNKEDEFRMPYLSHQQLPAGILPMVPEVAQAVGVSQGHHTKDFTRAAPNPAKATVTAMIARELLYGGTSPTAETILKNNISSGHVPHGPLTRPSEQLDYLSRVQGFQVEYKDFPKNNKNEFVSLINCSSQPPLISHGIGKDVESCHDMAALNILKLLSELDQQSTEMPRTGNGPMSVCGRC
notes: range 6-578; Prey from brain library; also called Staufen
binding result [8]: no binding

B6: S100A1-1 (other, human, UniProt P23297 1-94, looked up)
chain: MGSELETAMETLINVFHAHSGKEGDKYKLSKKELKELLQTELSGFLDAQKDVDAVDKVMKELDENGDGEVDFQEYVVLVAALTVACNNFFWENS
notes: Full-length bait; also called full length S100A1
binding result [9]: no binding

B7: S100B-1 (other, human, UniProt P04271 1-92, looked up)
chain: MSELEKAMVALIDVFHQYSGREGDKHKLKKSELKELINNELSHFLEEIKEQEVVDKVMETLDNDGDGECDFQEFMAFVAMVTTACHEFFEHE
notes: Full-length bait; also called full length S100B
binding result [10]: binds | binding result [11]: binds | binding result [12]: no binding | binding result [13]: binds

B8
binding result [2]: no binding | binding result [14]: no binding | binding result [15]: no binding

B9
binding result [3]: no binding

B10
binding result [1]: no binding | binding result [2]: no binding | binding result [3]: no binding | binding result [15]: no binding
